T1: nSR100 (Mus musculus, UniProt Q8BKA3)
T1 construct: host or cells: mouse N2A cells
T1 sequence (Q8BKA3 1-608): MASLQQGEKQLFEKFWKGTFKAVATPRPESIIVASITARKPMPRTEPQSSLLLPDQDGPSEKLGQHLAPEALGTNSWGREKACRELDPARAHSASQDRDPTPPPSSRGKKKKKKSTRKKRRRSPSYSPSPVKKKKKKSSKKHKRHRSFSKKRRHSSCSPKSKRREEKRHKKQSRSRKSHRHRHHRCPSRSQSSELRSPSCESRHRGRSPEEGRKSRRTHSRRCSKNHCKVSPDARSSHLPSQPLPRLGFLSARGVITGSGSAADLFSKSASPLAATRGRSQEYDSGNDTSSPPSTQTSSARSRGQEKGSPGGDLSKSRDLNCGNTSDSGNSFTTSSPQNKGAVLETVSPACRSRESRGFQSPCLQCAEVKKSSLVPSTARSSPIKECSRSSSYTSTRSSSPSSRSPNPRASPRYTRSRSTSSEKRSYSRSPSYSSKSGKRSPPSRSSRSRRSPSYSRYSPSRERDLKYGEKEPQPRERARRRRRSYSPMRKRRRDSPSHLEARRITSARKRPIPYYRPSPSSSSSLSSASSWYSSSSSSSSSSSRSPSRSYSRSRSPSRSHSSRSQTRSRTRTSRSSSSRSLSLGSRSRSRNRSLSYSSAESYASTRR


Molecular target: T1, nSR100
Assay: AP-MS nSR100 interaction partners from mouse N2A cells (Table 5)
Format: binding
Conditions: for AvgP (average of the SAINT scores) / MaxP (maximal SAINT score): bait Srrm4; for FoldChange between the prey Avg spectra of the bait and control purifications: bait Srrm4, 0.1 added to prevent division by 0; for AvgSpec (average number of spectra per replicate): bait Srrm4, 2 replicates; for Spectra (number of spectra for the prey in the purification of the bait): AP-MS; for SpecSum: bait Srrm4, sum of spectra over 2 replicates
[1] = bait Srrm4, biological replicate 1 (first number of the cell)
[2] = bait Srrm4, biological replicate 2 (second number of the cell)

Description: By applying affinity purification coupled to mass-spectrometry (AP-MS), several interaction nSR100 partner proteins were detected that provide insight into mechanisms of post-translational regulation of nSR100 levels.

AvgP (average of the SAINT scores)	MaxP (maximal SAINT score)	FoldChange between the prey Avg spectra of the bait and control purifications	AvgSpec (average number of spectra per replicate)	Spectra (number of spectra for the prey in the purification of the bait) [1]	Spectra (number of spectra for the prey in the purification of the bait) [2]	SpecSum	Molecule
1	1	65	6.5	6	7	13	Gsk3b (protein, UniProt Q9WV60 1-420, looked up) Glycogen synthase kinase-3 …: MSGRPRTTSFAESCKPVQQPSAFGSMKVSRDKDGSKVTTVVATPGQGPDRPQEVSYTDTKVIGNGSFGVVYQAKLCDSGELVAIKKVLQDKRFKNRELQIMRKLDHCNIVRLRYFFYSSGEKKDEVYLNLVLDYVPETVYRVARHYSRAKQTLPVIYVKLYMYQLFRSLAYIHSFGICHRDIKPQNLLLDPDTAVLKLCDFGSAKQLVRGEPNVSYICSRYYRAPELIFGATDYTSSIDVWSAGCVLAELLLGQPIFPGDSGVDQLVEIIKVLGTPTREQIREMNPNYTEFKFPQIKAHPWTKVFRPRTPPEAIALCSRLLEYTPTARLTPLEACAHSFFDELRDPNVKLPNGRDTPALFNFTTQELSSNPPLATILIPPHARIQAAASPPANATAASDTNAGDRGQTNNAASASASNST
1	1	18	9	8	10	18	Api5 (protein, UniProt O35841 1-504, looked up) Apoptosis inhibitor 5: MPTVEELYRNYGILADATEQVGQHKDAYQVILDGVKGGTKEKRLAAQFIPKFFKHFPELADSAINAQLDLCEDEDVSIRRQAIKELPQFATGENLPRVADILTQLLQTDDSAEFNLVNNALLSIFKMDAKGTLGGLFSQILQGEDIVRERAIKFLSTKLKTLPDEVLTKEVEELILTESKKVLEDVTGEEFVLFMKILSGLKSLQTVSGRQQLVELVAEQADLEQAFSPSDPDCVDRLLQCTRQAVPLFSKNVHSTRFVTYFCEQVLPNLSTLTTPVEGLDIQLEVLKLLAEMSSFCGDMEKLETNLRKLFDKLLEYMPLPPEEAENGENAGNEEPKLQFSYVECLLYSFHQLGRKLPDFLTAKLNAEKLKDFKIRLQYFARGLQVYIRQLRLALQGKTGEALKTEENKIKVVALKITNNINVLIKDLFHIPPSYKSTVTLSWKPVQKVEIGQKRTSEDTSSGSPPKKSPGGPKRDARQIYNPPSGKYSSNLSNFNYERSLQGK
1	1	150	15	15|15	15|15	30	P00761 (protein, UniProt P00761 1-231, looked up, full-length) FPTDDDDKIVGGYTCAANSIPYQVSLNSGSHFCGGSLINSQWVVSAAHCYKSRIQVRLGEHNIDVLEGNEQFINAAKIITHPNFNGNTLDNDIMLIKLSSPATLNSRVATVSLPRSCAAAGTECLISGWGNTKSSGSSYPSLLQCLKAPVLSDSSCKSSYPGQITGNMICVGFLEGGKDSCQGDSGGPVVCNGQLQGIVSWGYGCAQKNKPGVYTKVCNYVNWIQQTIAAN
1	1	7.09	39	38	40	78	Snrpa (protein, UniProt Q62189 1-287, looked up) U1 small nuclear …: MATIATMPVPETRANHTIYINNLNEKIKKDELKKSLYAIFSQFGQILDILVSRIMKMRGQAFVIFKEVTSATNALRSMQGFPFYDKPMRIQYAKTDSDIIAKMKGTYVERDRKREKRKPKSQETPAAKKAVQGGAAAPVVGAVQPVPGMPPMPQAPRIMHHMPGQPPYMPPPGMIPPPGLAPGQIPPGAMPPQQLMPGQMPPAQPLSENPPNHILFLTNLPEETNELMLSMLFNQFPGFKEVRLVPGRHDIAFVEFDNEVQAGAARDALQGFKITQNNAMKISFAKK
1	1	4.83	111	108	114	222	U2af2 (protein, UniProt P26369 2-475, looked up) Splicing factor U2AF 65 kDa …: SDFDEFERQLNENKQERDKENRHRKRSHSRSRSRDRKRRSRSRDRRNRDQRSASRDRRRRSKPLTRGAKEEHGGLIRSPRHEKKKKVRKYWDVPPPGFEHITPMQYKAMQAAGQIPATALLPTMTPDGLAVTPTPVPVVGSQMTRQARRLYVGNIPFGITEEAMMDFFNAQMRLGGLTQAPGNPVLAVQINQDKNFAFLEFRSVDETTQAMAFDGIIFQGQSLKIRRPHDYQPLPGMSENPSVYVPGVVSTVVPDSAHKLFIGGLPNYLNDDQVKELLTSFGPLKAFNLVKDSATGLSKGYAFCEYVDINVTDQAIAGLNGMQLGDKKLLVQRASVGAKNATLVSLPSTINQTPVTLQVPGLMSSQVQMGGHPTEVLCLMNMVLPEELLDDEEYEEIVEDVRDECSKYGLVKSIEIPRPVDGVEVPGCGKIFVEFTSVFDCQKAMQGLTGRKFANRVVVTKYCDPDSYHRRDFW
1	1	55	5.5	7	4	11	Csnk1d (protein, UniProt Q9DC28 1-415, looked up) Casein kinase I isoform delta: MELRVGNRYRLGRKIGSGSFGDIYLGTDIAAGEEVAIKLECVKTKHPQLHIESKIYKMMQGGVGIPTIRWCGAEGDYNVMVMELLGPSLEDLFNFCSRKFSLKTVLLLADQMISRIEYIHSKNFIHRDVKPDNFLMGLGKKGNLVYIIDFGLAKKYRDARTHQHIPYRENKNLTGTARYASINTHLGIEQSRRDDLESLGYVLMYFNLGSLPWQGLKAATKRQKYERISEKKMSTPIEVLCKGYPSEFATYLNFCRSLRFDDKPDYSYLRQLFRNLFHRQGFSYDYVFDWNMLKFGASRAADDAERERRDREERLRHSRNPATRGLPSTASGRLRGTQEVAPPTPLTPTSHTANTSPRPVSGMERERKVSMRLHRGAPVNVSSSDLTGRQDTSRMSTSQIPGRVASSGLQSVVHR
1	1	250	25	23	27	50	Acin1 (protein, UniProt Q9JIX8 1-1338, looked up) Apoptotic chromatin …: MWGRKRPNSSGETRGILSGNRGVDYGSGRGQSGPFEGRWRKLPKMPEAVGTDPSTSRKMAELEEVTLDGKPLQALRVTDLKAALEQRGLAKSGQKSALVKRLKGALMLENLQKHSTPHAAFQPNSQIGEEMSQNSFIKQYLEKQQELLRQRLEREAREAAELEEASAESEDEMTHPEGVASLLPPDFQSSLNRPELELSTHSPRKSSSFSEEKGESDDEKPRKGERRSSRVRQAKSKLPEYSQTAEEEEDQETPSRNLRVRADRNLKIEEEEEEEEEEEDDDDEEEEEVDEAQKSREAEAPTLKQFEDEEGEERTRAKPEKVVDEKPLNIRSQEKGELEKGGRVTRSQEEARRSHLARQQQEKETQIVSLPQEENEVKSSQSLEEKSQSPSPPPLPEDLEKAPVVLQPEQIVSEEETPPPLLTKEASSPPTHIQLQEEMEPVEGPAPPVLIQLSPPNTDAGAREPLASPHPAQLLRSLSPLSGTTDTKAESPAGRVSDESVLPLAQKSSLPECSTQKGVESEREKSAPLPLTVEEFAPAKGITEEPMKKQSLEQKEGRRASHALFPEHSGKQSADSSSSRSSSPSSSSSPSRSPSPDSVASRPQSSPGSKQRDGAQARVHANPHERPKMGSRSTSESRSRSRSRSRSASSSSRKSLSPGVSRDSNTSYTETKDPSCGQEAAAPSGPQLQVLEPKEKAPTFSASVRGRHLSHPEPEQQHVIQRLQPEQGSPKKCEAEEAEPPAATQPQTSETQISHLLESERTHHTVEEKEEVTMDTSENRPENEVPEPPLPVADQVSNDERPEGGAEEEEKKESSMPKSFKRKISVVSATKGVQAGNSDTEGGQPGRKRRWGASTAATQKKPSISITTESLKSLIPDIKPLAGQEAVVDLHADDSRISEDETERNGDDGTHDKGLKICRTVTQVVPAEGQENGQREEEEEKEPEAELPAPPQVSVEVALPPPVEHEVKKVTLGDTLTRRSISQQKSGVSITIDDPVRTAQVPSPPRGKISNIVHISNLVRPFTLGQLKELLGRTGTLVEEAFWIDKIKSHCFVTYSTVEEAVATRTALHGVKWPQSNPKFLCADYAEQDELDYHRGLLVDRPSETKAEEQGAPRPLHPPPPPPVQPPPHPRAEQREQERAVREQWAEREREMERRERTRSEREWDRDKVREGPRSRSRSRDRRRKERAKSKEKKSEKKEKAQEEPPAKLLDDLFRKTKAAPCIYWLPLTESQIVQKEAEQAERAKEREKRRKEREEEEQKEREKEAERERNRQLEREKRREHSRERERDRERERDRGDRERERERDRDRGRERDRRDTKRHSRSRSRSTPVRDRGGRR
1	1	180	18	15	21	36	Ywhaq (protein, UniProt P68254 1-245, looked up) 14-3-3 protein theta: MEKTELIQKAKLAEQAERYDDMATCMKAVTEQGAELSNEERNLLSVAYKNVVGGRRSAWRVISSIEQKTDTSDKKLQLIKDYREKVESELRSICTTVLELLDKYLIANATNPESKVFYLKMKGDYFRYLAEVACGDDRKQTIENSQGAYQEAFDISKKEMQPTHPIRLGLALNFSVFYYEILNNPELACTLAKTAFDEAIAELDTLNEDSYKDSTLIMQLLRDNLTLWTSDSAGEECDAAEGAEN
